Numbering of substitutions follows the chain as printed. Several values for one entry are separate records, joined by “and”; a condition that tells them apart may be missing. Identical values can stand only once. Like-named read-outs stand apart in the source and are kept apart here. Blank lines part the entries; values can stand above or below the binder they belong to.
How the values were obtained:
[1] = biological target: pre-existing anti-VH ADA in human serum; assay: ADA confirmation assay of Example 2 (MSD): test material against labelled DOM1H-131-206
[2] = biological target: T1, human TNFR1 (on human cells) (human, UniProt P19438 30-455); assay: cell-based or functional assay
T1 sequence (looked up): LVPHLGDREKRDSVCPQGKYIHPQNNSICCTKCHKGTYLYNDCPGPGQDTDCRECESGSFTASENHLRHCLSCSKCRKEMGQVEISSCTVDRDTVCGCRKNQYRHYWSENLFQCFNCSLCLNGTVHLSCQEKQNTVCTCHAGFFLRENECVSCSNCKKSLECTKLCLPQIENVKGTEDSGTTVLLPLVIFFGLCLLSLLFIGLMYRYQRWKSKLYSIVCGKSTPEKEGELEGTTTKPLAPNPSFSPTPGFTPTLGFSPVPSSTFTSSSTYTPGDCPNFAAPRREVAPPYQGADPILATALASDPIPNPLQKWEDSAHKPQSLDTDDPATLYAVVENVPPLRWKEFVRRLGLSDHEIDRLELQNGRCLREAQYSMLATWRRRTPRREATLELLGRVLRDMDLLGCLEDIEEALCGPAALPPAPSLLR

[3] = biological target: T2, cynomolgus monkey TNFR1 (on monkey cells) (cynomolgus monkey, UniProt Q2PFV5 30-455); assay: cell-based or functional assay
T2 sequence: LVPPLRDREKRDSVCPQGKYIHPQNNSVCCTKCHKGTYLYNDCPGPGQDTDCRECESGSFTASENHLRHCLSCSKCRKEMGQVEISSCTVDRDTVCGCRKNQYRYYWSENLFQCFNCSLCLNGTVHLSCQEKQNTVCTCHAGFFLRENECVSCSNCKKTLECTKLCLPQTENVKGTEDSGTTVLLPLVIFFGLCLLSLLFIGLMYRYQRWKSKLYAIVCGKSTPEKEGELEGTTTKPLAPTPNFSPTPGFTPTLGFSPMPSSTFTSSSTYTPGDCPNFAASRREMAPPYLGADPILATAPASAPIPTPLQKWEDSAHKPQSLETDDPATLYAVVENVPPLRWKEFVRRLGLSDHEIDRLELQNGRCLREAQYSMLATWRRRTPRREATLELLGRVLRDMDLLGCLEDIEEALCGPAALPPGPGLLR

[4] = biological target: pre-existing anti-VH ADA in human serum; assay: ADA confirmation assay (MSD): 10 ug/mL test material against labelled DOM1H-131-206, mean of 10 sera
[5] = biological target: pre-existing anti-VH ADA in human serum; assay: as above; remark: listed apart in the source
cynomolgus monkey TNFR1 = biological target: T3, cynomolgus monkey TNFR1 (cynomolgus monkey, UniProt Q2PFV5 30-211); assay: SPR (Biacore T100), same format with cynomolgus monkey TNFR1, dAb as analyte, 1:1 model
T3 sequence: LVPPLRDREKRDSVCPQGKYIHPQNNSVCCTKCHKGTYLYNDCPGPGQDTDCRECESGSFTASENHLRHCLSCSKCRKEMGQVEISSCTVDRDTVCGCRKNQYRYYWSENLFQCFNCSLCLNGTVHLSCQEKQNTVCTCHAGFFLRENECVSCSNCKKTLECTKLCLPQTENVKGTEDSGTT

[6] = biological target: T4, Recombinant human TNFR1-Fc (human, UniProt P19438 30-211, limits assumed); assay: SPR (Biacore T100): TNFR1:Fc captured by anti-human IgG on a CM4 chip, dAb as analyte, 1:1 model
T4 construct: bought reagent; also called hTNFR1:Fc; not shown: Fc part; not described
T4 sequence (looked up): T3 sequence with P4H, R6G, V28I, Y105H, T159S, T170I

[7] = biological target: pre-existing anti-VH ADA in human serum; assay: ADA confirmation assay (MSD): 10 ug/mL test material against labelled DOM1H-131-206; share of 10 ADA-positive sera with binding
[8] = biological target: T4, Recombinant human TNFR1-Fc; assay: ELISA: dAb on coated recombinant human TNFR1-Fc, anti-Vh detection
[9] = biological target: pre-existing anti-VH ADA in human serum; assay: ADA confirmation assay (MSD): 10 ug/mL test material against labelled DOM1H-131-206; share of 10 ADA-positive sera with binding; remark: listed apart in the source
[10] = biological target: T4, Recombinant human TNFR1-Fc; assay: ELISA: dAb on coated recombinant human TNFR1-Fc

B3: Clone VHH2(f) (VHH)
VHH: EVQLVESGGGLVQPGGSLRLSCAASGRTFSYNPMGWFRQAPGKGRELVAAISRTGGSTYYPDSVEGRFTISRDNAKRMVYLQMNSLRAEDTAVYYCAAAGVRAEDGRVRTLPSEYTFWGQGTQVTVSSAAAEVQLVESGGGLVQPGGSLRLSCAASGRTFSYNPMGWFRQAPGKGRELVAAISRTGGSTYYPDSVEGRFTISRDNAKRMVYLQMNSLRAEDTAVYYCAAAGVRAEDGRVRTLPSEYTFWGQGTQVTVSS
- Mean % Inhibition [1]: 94.2%

B4: DOM1H-131-206 (other)
VH: EVQLLESGGGLVQPGGSLRLSCAASGFTFAHETMVWVRQAPGKGLEWVSHIPPDGQDPFYADSVKGRFTISRDNSKNTLYLQMNSLRAEDTAVYHCALLPKRGPWFDYWGQGTLVTVSS
notes: human anti-TNFR1 VH domain antibody (dAb); biotinylated or Sulfo-Tag labelled where it is the assay reagent
- IC50, inhibition of TNFα-induced IL-8, A549 human lung epithelium (n = 2) [2]: 1 nM
- IC50, inhibition of TNFα-induced IL-8, Human whole blood (n = 3-5) [2]: 1.6 nM
- IC50, inhibition of TNFα-induced IL-8, MRC5 human lung fibroblast (n = 3) [2]: 4.8 nM
- IC50, inhibition of LPS-induced IL-8, Cynomolgus monkey whole blood (n = 3) [3]: 0.5 nM
- IC50, inhibition of TNFα-induced IL-8, CYNOMK1 Cynomolgus monkey skin fibroblasts (n = 2) [3]: 4.8 nM
- % subjects with ADA binding (10 subjects) (% of subjects) [7]: 100
- Mean % inhibition of signal in confirmation assay [4]: 96.1% and 99.5%
- Kd (cynomolgus monkey TNFR1): 0.015 nM
- koff (cynomolgus monkey TNFR1): 0.000151 s⁻¹
- kon (cynomolgus monkey TNFR1): 1.01e+07 M⁻¹ s⁻¹
- Kd [6]: 0.0143 nM
- koff [6]: 0.000142 s⁻¹
- kon [6]: 9.94e+06 M⁻¹ s⁻¹

B5: DOM1H-131-206 A84T (other, name in Kabat numbering)
VH: B4 VH with A88T
notes: VH dAb variant
- EC50 [8]: 0.79 nM
- Mean % inhibition of signal in confirmation assay [5]: 91%
- % subjects with ADA binding (10 subjects) (% of subjects) [9]: 100

B6: DOM1H-131-206 C-terminal ASTKGP (other)
VH: EVQLLESGGGLVQPGGSLRLSCAASGFTFAHETMVWVRQAPGKGLEWVSHIPPDGQDPFYADSVKGRFTISRDNSKNTLYLQMNSLRAEDTAVYHCALLPKRGPWFDYWGQGTLVTVSSASTKGP
notes: VH dAb variant
- fold change of EC50 against the parental dAb DOM1H-131-206 [10]: ~5 fold
- % subjects with ADA binding (10 subjects) (% of subjects) [7]: 60
- Mean % inhibition of signal in confirmation assay [4]: 42.6%

Second part, the binder after the results:

- Mean % Inhibition [1]: 17.5%
B1: VHH2(f) + A (VHH)
VHH: EVQLVESGGGLVQPGGSLRLSCAASGRTFSYNPMGWFRQAPGKGRELVAAISRTGGSTYYPDSVEGRFTISRDNAKRMVYLQMNSLRAEDTAVYYCAAAGVRAEDGRVRTLPSEYTFWGQGTQVTVSSAAAEVQLVESGGGLVQPGGSLRLSCAASGRTFSYNPMGWFRQAPGKGRELVAAISRTGGSTYYPDSVEGRFTISRDNAKRMVYLQMNSLRAEDTAVYYCAAAGVRAEDGRVRTLPSEYTFWGQGTQVTVSSA

- IC50, inhibition of TNFα-induced IL-8, A549 human lung epithelium (n = 2) [2]: 1 nM
- IC50, inhibition of TNFα-induced IL-8, Human whole blood (n = 3-5) [2]: 0.9 nM
- IC50, inhibition of TNFα-induced IL-8, MRC5 human lung fibroblast (n = 3) [2]: 3.5 nM
- IC50, inhibition of LPS-induced IL-8, Cynomolgus monkey whole blood (n = 3) [3]: 0.4 nM
- IC50, inhibition of TNFα-induced IL-8, CYNOMK1 Cynomolgus monkey skin fibroblasts (n = 2) [3]: 4.7 nM
- Mean % inhibition of signal in confirmation assay [4]: 15.7%
- Mean % inhibition of signal in confirmation assay [5]: 1.12%
- Kd (cynomolgus monkey TNFR1): 0.0197 nM
- koff (cynomolgus monkey TNFR1): 0.000189 s⁻¹
- kon (cynomolgus monkey TNFR1): 9.6e+06 M⁻¹ s⁻¹
- Kd [6]: 0.0253 nM
- koff [6]: 0.000229 s⁻¹
- kon [6]: 9.02e+06 M⁻¹ s⁻¹
B2: DOM1H-131-206 with a C-terminal alanine extension (other)
VH: EVQLLESGGGLVQPGGSLRLSCAASGFTFAHETMVWVRQAPGKGLEWVSHIPPDGQDPFYADSVKGRFTISRDNSKNTLYLQMNSLRAEDTAVYHCALLPKRGPWFDYWGQGTLVTVSSA
notes: VH dAb variant

Reference: patent publication US20250136721A1 (GlaxoSmithKline, published 2025)
